The values below come from PMC6007975.

“And” between values parts separate entries of the source, which are not always exact repeats. Equal entries are not always repeated.

The assay has as its target N-terminal fragment of mouse GSDMA3 (GSDMA3-NT) (mouse) (UniProt Q5Y4Y6). The experiment in a line: cryo-EM structure.

In the case of “N-terminal fragment of mouse GSDMA3 (GSDMA3-NT) (from UniProt Q5Y4Y6 1-262) (domain or fragment)”, the stoichiometry N was 26 and 28.

The stoichiometry N is the number of molecules, sites or subunits per partner or assembly.
